Paper PMC9182133, “Cholesterol Dependent Activity of the Adenosine A2A Receptor Is Modulated via the Cholesterol Consensus Motif” (Molecules, 2022)

Columns and labels:
[1] = molecular target: T1, A2AR S47A variant with rho-1d4 tag (human, UniProt P29274 1-412, S47A); assay: SPR; His6-Gαs (1 µM injected) captured on a high-capacity Ni-NTA chip; purified receptor injected at 296 (legend: 267), 445 or 667 nM for 3 min, dissociation 5 min; 20 °C, 25 µL/min; 50 mM Tris-HCl pH 8, 0.1% DDM, 0.1% CHAPS, 0.02% CHS; channel with denatured Gαs subtracted; 1-1 binding model, fits of three biological replicates averaged; conditions: both partners purified
T1 construct: adenosine A2A receptor, human, with S47A (Ballesteros-Weinstein 2.45) in the cholesterol consensus motif; source: S. cerevisiae BJ5464 (pITy4, galactose induced), purified (Rho-1d4 resin, eluted with Rho-1d4 peptide) in DDM/CHAPS/CHS
T1 sequence (P29274 whole entry S47A): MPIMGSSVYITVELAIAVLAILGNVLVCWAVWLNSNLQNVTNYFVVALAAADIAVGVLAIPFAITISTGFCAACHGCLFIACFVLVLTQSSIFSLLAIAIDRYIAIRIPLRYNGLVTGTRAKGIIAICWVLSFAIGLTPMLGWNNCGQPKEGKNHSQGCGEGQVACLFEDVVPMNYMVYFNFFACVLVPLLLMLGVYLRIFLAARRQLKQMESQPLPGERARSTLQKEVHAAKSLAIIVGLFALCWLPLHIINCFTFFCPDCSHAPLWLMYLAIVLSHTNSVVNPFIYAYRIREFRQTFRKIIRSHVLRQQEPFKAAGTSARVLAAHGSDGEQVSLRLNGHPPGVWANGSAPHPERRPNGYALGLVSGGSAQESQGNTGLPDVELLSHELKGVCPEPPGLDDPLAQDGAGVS

[2] = molecular target: T2, wild-type human adenosine A2A receptor with rho-1d4 tag (pITy4-A2AR-1d4) (human, UniProt P29274 1-412); assay: as above; conditions: both partners purified
T2 construct: adenosine A2A receptor, human, wild type; the abstract calls it full length; also called WT A2AR; source: S. cerevisiae BJ5464 (pITy4, galactose induced), purified (Rho-1d4 resin, eluted with Rho-1d4 peptide) in DDM/CHAPS/CHS
T2 sequence (P29274 whole entry): as the sequence (P29274 whole entry S47A) above, with A47S counted along it

B1: Gαs protein (pET15b-Gαs, His6 tagged) (natural protein, UniProt P63092 1-394, looked up)
chain: MGCLGNSKTEDQRNEEKAQREANKKIEKQLQKDKQVYRATHRLLLLGAGESGKSTIVKQMRILHVNGFNGEGGEEDPQAARSNSDGEKATKVQDIKNNLKEAIETIVAAMSNLVPPVELANPENQFRVDYILSVMNVPDFDFPPEFYEHAKALWEDEGVRACYERSNEYQLIDCAQYFLDKIDVIKQADYVPSDQDLLRCRVLTSGIFETKFQVDKVNFHMFDVGGQRDERRKWIQCFNDVTAIIFVVASSSYNMVIREDNQTNRLQEALNLFKSIWNNRWLRTISVILFLNKQDLLAEKVLAGKSKIEDYFPEFARYTTPEDATPEPGEDPRVTRAKYFIRDEFLRISTASGDGRHYCYPHFTCAVDTENIRRVFNDCRDIIQRMHLRQYELL
notes: G protein alpha-s subunit; also called G protein; source: E. coli Rosetta (DE3), purified (Ni-NTA resin)
[1]
  Kd: 146 nM
  koff: 0.00122 s⁻¹
  kon: 18700 ± 2900 M⁻¹ s⁻¹
[2]
  Kd: 74 nM
  koff: 0.00066 s⁻¹
  kon: 12700 ± 649 M⁻¹ s⁻¹
